Measurements published in patent US20120167239A1.

Target: GAL4:CfEcR-DEF (yeast; Choristoneura fumiferana)
Assay: cell-based or functional assay

## VP16:LmUSP-EF
  maximum fold induction of luciferase reporter (two-hybrid switch, stable CHO clone 1A2, non-steroidal ligand): 162 fold
  maximum fold induction of luciferase reporter (two-hybrid switch, stable CHO clone 1A2, steroid PonA): 42 fold
